This is an account of results in the RNAGym collection of RNA variant scans (doi:10.7554/elife.90254).

The chains are these.
B1: OR4K15 (parent)
chain: GUUAACGGUCAUAGGCCAUGGAAACUAGGAGCACCAUUUCGCUGCCAGUGAAGAAAUGAACAAAGAAAAUCUGGGCCAGGCAGGCAUCAAAAGAAAUAGUCUUGCGCUCAACCAGAAAGUCUGUAAUCAUUUUAAGGGUA

The data set covers variants of B1. Briefly: self-cleavage, relative activity (ratio to wild type); higher = more cleavage; in vitro, sequencing; the parent is a self-cleaving ribozyme.
GUUAACGGUCAUAGGCCAUGGAAACUAGGAGCACCAUUUCGCUGCCAGUGAAGAAAAGAACAAAGAAAAUCUGGGCCAGGCAGGCAUCAAAAGAAAUAGUCUUGCGCUCAACCAGAAAGUCUGUAAUCGUUUUAAGGGUA [U57A A129G]: the self-cleavage came out at 0.9.

For the variant GUUAACGGUCAUAGGCCAUGGAAACUAGGAGCACCAUUUCGCUGCCAGUGAAGAAAAGAACAAAGAAAAUCUGGGCCAGGCAGGCAUCAAAAGAAAUAGUCUCGCGCUCAACCAGAAAGUCUGUAAUCAUUUUAAGGGUA [U57A U103C], the self-cleavage was determined as 0.22.

On to GUUAACGGUCAUAGGCCAUGGAAACUAGGAGCACCAUUUCGCUGCCAGUGAAGAAAAGAACAAAGAAAAUCUGGGCCAGGCAGGCAUCAAAAGAACUAGUCUUGCGCUCAACCAGAAAGUCUGUAAUCAUUUUAAGGGUA [U57A A96C], for which the self-cleavage stood at 0.99.

As for GUUAACGGUCAUAGGCCAUGGAAACUAGGAGCACCAUUUCGCUGCCAGUGAAGAAAAGAACAAAGAAAAUCUGGGCCAGGCAGGCAUCAAAAGAAAUAGUCUUGCGCUCAACCUGAAAGUCUGUAAUCAUUUUAAGGGUA [U57A A114U], the self-cleavage came out at 0.03.

Take GUUAACGGUCAUAGGCCAUGGAAACUAGGAGCACCAUUUCGCUGCCAGUGAAGAAAAGAACAAAGAAAAUCUGGGCCAGGCAGGCAUCAAAAGAAAUAGUCUUGCGCUCAACCGGAAAGUCUGUAAUCAUUUUAAGGGUA [U57A A114G]: the self-cleavage was 0.38.

As to GUUAACGGUCAUAGGCCAUGGAAACUAGGAGCACCAUUUCGCUGCCAGUGAAGAAAAGAACAAAGAAAAUCUGGGCCAGGCAGGCAUCAAAAGAAAUAGUCGUGCGCUCAACCAGAAAGUCUGUAAUCAUUUUAAGGGUA [U57A U102G], the self-cleavage was 0.16.

As to GUUAACGGUCAUAGGCCAUGGAAACUAGGAGCACCAUUUCGCUGCCAGUGAAGAAAAGAACAAAGAAAAUCUGGGCCAGGCAGGCAUCAAAAGAAAUAGUCUUGCGCUCAACCAGAAAGUCUGUAAUCAUUUUAAGGAUA [U57A G138A], the self-cleavage is 1.33.

On to GUUAACGGUCAUAGGCCAUGGAAACUAGGAGCACCAUUUCGCUGCCAGUGAAGAAAAGAACAAAGAAAAUCUGGGCCAGGCAGGCAUCAAAAGAAACAGUCUUGCGCUCAACCAGAAAGUCUGUAAUCAUUUUAAGGGUA [U57A U97C], for which the self-cleavage was found to be 1.78.

As for GUUAACGGUCAUAGGCCAUGGAAACUAGGAGCACCAUUUCGCUGCCAGUGAAGAAAAGAACAAAGAAAAUCUGGGCCAGGCAGGCAUCAAAAGAAAUAGUCUUGCGCUCAACCAGAGAGUCUGUAAUCAUUUUAAGGGUA [U57A A117G], the self-cleavage was 1.69.

GUUAACGGUCAUAGGCCAUGGAAACUAGGAGCACCAUUUCGCUGCCAGUGAAGAAAAGAACAAAGAAAAUCUGGGCCAGGCAGGCAUCAAAAGAAAUAGUCUUGCGCUCAACCAGAAAGUCUGUGAUCAUUUUAAGGGUA [U57A A125G]: the self-cleavage stood at 0.52.

As to GUUAACGGUCAUAGGCCAUGGAAACUAGGAGCACCAUUUCGCUGCCAGUGAAGAAAAGAACAAAGAAAAUCUGGGCCAGGCAGGCAUCAAAAGAAAUAGUCUUGCGCUCAACCAGAAAGUCUGCAAUCAUUUUAAGGGUA [U57A U124C], the self-cleavage was 0.68.

On to GUUAACGGUCAUAGGCCAUGGAAACUAGGAGCACCAUUUCGCUGCCAGUGAAGAAAAGAACAAAGAAAAUCUGGGCCAGGCAGGCAUCAAAAGAAAUAGUCUUGCGCUCAACCAGAAAGUCUGUAAUCAUUUUAAGGGCA [U57A U139C], for which the self-cleavage came out at 0.25.

GUUAACGGUCAUAGGCCAUGGAAACUAGGAGCACCAUUUCGCUGCCAGUGAAGAAAAGAACAAAGAAAAUCUGGGCCAGGCAGGCAUCAAAAGAAAUAGUCUUGCGCUCAACCAGAAAGUCUGUAAUCAUUUUAAGGGUG [U57A A140G]: the self-cleavage amounted to 1.3.

As to GUUAACGGUCAUAGGCCAUGGAAACUAGGAGCACCAUUUCGCUGCCAGUGAAGAAAAGAACAAAGAAAAUCUGGGCCAGGCAGGCAUCAAAAGAAAUAGUCUUGCGCUCAACCAGAAAGUCCGUAAUCAUUUUAAGGGUA [U57A U122C], the self-cleavage worked out at 0.75.

Regarding GUUAACGGUCAUAGGCCAUGGAAACUAGGAGCACCAUUUCGCUGCCAGUGAAGAAAAGAACAAAGAAAAUCUGGGCCAGGCAGGCAUCAAAAGAAAUAGUCUUGCGCUCAGCCAGAAAGUCUGUAAUCAUUUUAAGGGUA [U57A A111G], the self-cleavage is 0.02.

Take GUUAACGGUCAUAGGCCAUGGAAACUAGGAGCACCAUUUCGCUGCCAGUGAAGAAAAGAACAAAGAAAAUCUGGGCCAGGCAGGCAUCAAAAGAAAUAGUCUUGCGCUCCACCAGAAAGUCUGUAAUCAUUUUAAGGGUA [U57A A110C]: the self-cleavage is 0.17.

Regarding GUUAACGGUCAUAGGCCAUGGAAACUAGGAGCACCAUUUCGCUGCCAGUGAAGAAAAGAACAAAGAAAAUCUGGGCCAGGCAGGCAUCAAAAGAAAUAGUCUUGCGCUCUACCAGAAAGUCUGUAAUCAUUUUAAGGGUA [U57A A110U], the self-cleavage came to 1.

Take GUUAACGGUCAUAGGCCAUGGAAACUAGGAGCACCAUUUCGCUGCCAGUGAAGAAAAGAACAAAGAAAAUCUGGGCCAGGCAGGCAUCAAAAGAAAUUGUCUUGCGCUCAACCAGAAAGUCUGUAAUCAUUUUAAGGGUA [U57A A98U]: the self-cleavage worked out at 1.47.

As for GUUAACGGUCAUAGGCCAUGGAAACUAGGAGCACCAUUUCGCUGCCAGUGAAGAAAAGAACAAAGAAAAUCUGGGCCAGGCAGGCACCAAAAGAAAUAGUCUUGCGCUCAACCAGAAAGUCUGUAAUCAUUUUAAGGGUA [U57A U87C], the self-cleavage came out at 0.92.

As to GUUAACGGUCAUAGGCCAUGGAAACUAGGAGCACCAUUUCGCUGCCAGUGAAGAAAAGAACAAAGAAAAACUGGGCCAGGCAGGCAUCAAAAGAAAUAGUCUUGCGCUCAACCAGAAAGUCUGUAAUCAUUUUAAGGGUA [U57A U70A], the self-cleavage worked out at 0.62.

Turning to GUUAACGGUCAUAGGCCAUGGAAACUAGGAGCACCAUUUCGCUGCCAGUGAAGAAAAGAACAAAGAAAAUCUGGGCCAGGCAGGCAUCAAAAGAAAUAGUCUUGCGCUCAACCAGAAAGUCUGUAAUCACUUUAAGGGUA [U57A U130C], the self-cleavage amounted to 0.81.
